Data: patent US20220016257A1 (Daiichi Sankyo, published 2022)

T1: human CDH6 (full-length, on cells) (human, UniProt P55285 54-790)
T1 construct: also called hCDH6; full-length hCDH6
T1 sequence: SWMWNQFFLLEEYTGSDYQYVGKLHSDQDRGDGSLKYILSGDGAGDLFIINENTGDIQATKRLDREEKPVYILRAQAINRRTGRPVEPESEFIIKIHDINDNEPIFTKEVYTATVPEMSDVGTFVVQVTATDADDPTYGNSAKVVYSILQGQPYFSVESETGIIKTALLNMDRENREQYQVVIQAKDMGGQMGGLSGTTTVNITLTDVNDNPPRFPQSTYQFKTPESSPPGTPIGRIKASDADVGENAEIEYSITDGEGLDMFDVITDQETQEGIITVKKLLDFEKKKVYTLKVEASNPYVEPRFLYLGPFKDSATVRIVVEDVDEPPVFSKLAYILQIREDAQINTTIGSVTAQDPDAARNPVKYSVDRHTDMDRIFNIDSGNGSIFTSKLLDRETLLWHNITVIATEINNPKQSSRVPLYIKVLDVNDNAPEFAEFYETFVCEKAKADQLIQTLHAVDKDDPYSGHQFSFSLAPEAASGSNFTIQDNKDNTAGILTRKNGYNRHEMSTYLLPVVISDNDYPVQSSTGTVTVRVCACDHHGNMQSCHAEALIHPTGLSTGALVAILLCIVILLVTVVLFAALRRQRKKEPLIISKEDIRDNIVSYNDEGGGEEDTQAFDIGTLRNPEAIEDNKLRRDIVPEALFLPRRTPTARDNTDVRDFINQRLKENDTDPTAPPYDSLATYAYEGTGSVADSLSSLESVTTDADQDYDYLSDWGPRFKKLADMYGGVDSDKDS

T2: cynomolgus monkey CDH6 (full-length, on cells) (cynomolgus monkey, UniProt P55285 54-790 (human entry))
T2 construct: Expressed from pcDNA3.1-cynoCDH6 on transfected cells; also called cynoCDH6
T2 sequence: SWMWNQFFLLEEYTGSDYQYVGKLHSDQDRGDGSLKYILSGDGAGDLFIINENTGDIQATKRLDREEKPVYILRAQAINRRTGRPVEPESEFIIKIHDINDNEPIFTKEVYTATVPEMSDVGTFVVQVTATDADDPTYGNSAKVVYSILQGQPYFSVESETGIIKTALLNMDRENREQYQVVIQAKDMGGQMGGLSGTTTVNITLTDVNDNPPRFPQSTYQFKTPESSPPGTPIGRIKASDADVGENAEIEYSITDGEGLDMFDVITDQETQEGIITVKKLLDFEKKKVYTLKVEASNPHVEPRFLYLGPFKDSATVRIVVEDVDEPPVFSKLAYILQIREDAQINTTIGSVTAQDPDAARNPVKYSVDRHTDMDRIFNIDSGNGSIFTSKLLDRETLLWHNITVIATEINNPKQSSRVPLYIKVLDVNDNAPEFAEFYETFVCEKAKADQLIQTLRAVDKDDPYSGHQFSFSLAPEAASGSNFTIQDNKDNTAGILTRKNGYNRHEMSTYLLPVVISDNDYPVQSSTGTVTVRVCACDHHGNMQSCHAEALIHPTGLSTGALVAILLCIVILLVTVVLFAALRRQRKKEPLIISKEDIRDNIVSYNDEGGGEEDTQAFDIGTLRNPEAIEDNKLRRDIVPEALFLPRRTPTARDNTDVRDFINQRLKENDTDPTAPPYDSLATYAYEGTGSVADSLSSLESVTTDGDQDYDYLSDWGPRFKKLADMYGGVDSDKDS

T3: Recombinant Human Cadherin-6 (KCAD)/Fc Chimera (RD-SYSTEMS) (human, UniProt P55285 54-615, limits assumed)
T3 construct: Captured by an anti-histidine antibody; also called human CDH6; the antigen; not shown: Fc portion (and the histidine tag implied by anti-histidine capture) of the bought chimera
T3 sequence: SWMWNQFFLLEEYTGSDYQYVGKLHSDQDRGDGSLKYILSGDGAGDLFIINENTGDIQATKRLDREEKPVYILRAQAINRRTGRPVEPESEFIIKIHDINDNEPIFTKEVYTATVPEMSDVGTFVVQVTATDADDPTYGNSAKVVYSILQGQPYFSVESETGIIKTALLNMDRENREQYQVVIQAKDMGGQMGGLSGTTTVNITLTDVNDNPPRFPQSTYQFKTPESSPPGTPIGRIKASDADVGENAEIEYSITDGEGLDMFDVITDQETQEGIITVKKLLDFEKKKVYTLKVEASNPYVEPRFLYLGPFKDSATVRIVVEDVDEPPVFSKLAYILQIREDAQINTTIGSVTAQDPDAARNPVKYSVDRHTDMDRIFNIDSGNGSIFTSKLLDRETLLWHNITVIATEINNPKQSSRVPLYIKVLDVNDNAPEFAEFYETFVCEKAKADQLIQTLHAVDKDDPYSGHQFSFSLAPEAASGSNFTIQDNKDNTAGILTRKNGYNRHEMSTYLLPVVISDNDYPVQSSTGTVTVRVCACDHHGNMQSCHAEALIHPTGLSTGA


Experiments:
[1] = molecular target: T1, human CDH6 (full-length, on cells); assay: flow cytometry, 293α cells transiently transfected with pcDNA3.1-hCDH6, PE anti-human IgG Fcγ F(ab')2, mean fluorescence intensity
Protocol: (§1) The CDH6-binding activity of the human chimeric anti-CDH6 antibody chG019 purified in 4)-2 was confirmed by flow cytometry. […] The cells were cultured overnight under conditions of 37° C. and 5% CO₂, treated with TrypLE Express (Thermo Fisher Scientific Inc.), and thereafter, a cell suspension was prepared. chG019 was added to the suspension of each of these cells. The cells were left standing at 4° C. for 1 hour. Thereafter, the cells were washed twice with PBS supplemented with 5% FBS, and then suspended by the addition of PE-labeled F(ab′)2 Fragment anti-human IgG, Fcγ antibody (Jackson ImmunoResearch Laboratories, Inc.) that had been 500-fold diluted with PBS supplemented with 5% FBS. The cells were left standing at 4° C. for 1 hour. The cells were washed twice with PBS supplemented with 5% FBS, and then re-suspended in PBS supplemented with 5% FBS, followed by detection using a flow cytometer (Canto II; BD Biosciences). The data was analyzed using FlowJo (TreeStar, Inc.). […] In FIG. 4, the abscissa depicts antibody concentration, and the ordinate depicts the amount of the antibody bound, based on mean fluorescence intensity.

[2] = molecular target: T2, cynomolgus monkey CDH6 (full-length, on …); assay: flow cytometry, 293α cells transiently transfected with pcDNA3.1-cynoCDH6, PE anti-human IgG Fcγ F(ab')2, mean fluorescence intensity
Protocol: as §1

[3] = molecular target: T3, Recombinant Human Cadherin-6 (KCAD)/Fc …; assay: SPR (Biacore T200), antigen captured by immobilized anti-histidine antibody, antibody as analyte, steady state affinity model
Protocol: The dissociation constant of a construct of each of H01L02A, H11L02A and H31L02A prepared in Example 7)-4 and human CDH6 was measured by using Biacore T200 (GE Healthcare Biosciences Corp.), according to a capture method, which comprises capturing the antigen as a ligand with Anti-histidine antibody immobilized by means of a His Capture Kit (manufactured by GE Healthcare Bioscience) and then measuring the dissociation constant using an antibody as an analyte. As the sensor chip, CM5 (manufactured by GE Healthcare Bioscience) was used. As the running buffer, buffer containing 20 mM Tris-HCl, 150 mM NaCl, 1 mM CaCl₂ and 0.05% Surfactant P20 (pH7.4), was used. On the chip, a 1 μg/mL Recombinant Human Cadherin-6 (KCAD)/Fc Chimera (RD-SYSTEMS) was added at a rate of 10 μL/minute for 60 seconds, and a dilution series solution (0.11 to 81 μg/mL) of the antibody prepared in Example 7)-4 was then added at a flow rate of 30 μl/min for 180 seconds. Subsequently, the dissociation phase was monitored for 180 seconds. As a regeneration solution, a Glycine 1.5 (GE Healthcare Bioscience made by the company) was added at a flow rate of 20 μl/min for 30 seconds. A Steady State Affinity model was used in data analysis, and the dissociation constant (KD) was calculated.

Binder | EC50 (read off the curve) [1] | EC50 (read off the curve) [2] | Kd [3]
human chimeric anti-CDH6 antibody chG019 (antibody, human IgG1, Human IgG1/kappa constant regions; also called chimeric G019 antibody; chG019 antibody) heavy: not shown light: DIQMTQSPSLLSASVGDRVTLNCKASQNIYKNLAWYQQKLGEGPKLLIYDANTLQTGIPSRFSGSGSGSDFTLTISSLQPEDVATYFCQQYYSGWAFGGVTNLELKRAVAAPSVFIFPPSDEQLKSGTASVVCLLNNFYPREAKVQWKVDNALQSGNSQESVTEQDSKDSTYSLSSTLTLSKADYEKHKVYACEVTHQGLSSPVTKSFNRGEC | ~0.01 µg/mL | ~0.01 µg/mL | 
humanized anti-CDH6 antibody H01L02A (antibody, human IgG1, kappa, L234A L235A, hH01A heavy chain (hH01 with L234A/L235A, EU index; IgG1 LALA) and hL02 light chain; also called H01L02A antibody) heavy: not shown light: DIQMTQSPSSLSASVGDRVTITCKASQNIYKNLAWYQQKPGKAPKLLIYDANTLQTGVPSRFSGSGSGSDFTLTISSLQPEDFATYFCQQYYSGWAFGQGTKVEIKRTVAAPSVFIFPPSDEQLKSGTASVVCLLNNFYPREAKVQWKVDNALQSGNSQESVTEQDSKDSTYSLSSTLTLSKADYEKHKVYACEVTHQGLSSPVTKSFNRGEC |  |  | 2.8 nM

Second part, the binder after the results:

EC50 (read off the curve) [1] | EC50 (read off the curve) [2] | Kd [3] | Binder
 |  | 11.1 nM | humanized anti-CDH6 antibody H31L02A (antibody, human IgG1, kappa, L234A L235A, V domains shown, hH31A heavy chain (hH01 with the 81st glutamine changed to serine and the 123rd phenylalanine to alanine, IgG1 LALA) and hL02 light chain; also called H31L02A antibody) VH: EVQLVQSGAEVKKPGASVKVSCKASGYTFTRNFMHWVRQAPGQGLEWMGWIYPGDGETEYASKFQGRVTITADTSTSTAYMELSSLRSEDTAVYYCARGVYGGAAGGYFDFWGQGTLVTVSS VL: DIQMTQSPSSLSASVGDRVTITCKASQNIYKNLAWYQQKPGKAPKLLIYDANTLQTGVPSRFSGSGSGSDFTLTISSLQPEDFATYFCQQYYSGWAFGQGTKVEIKR
 |  | 43.1 nM | humanized anti-CDH6 antibody H11L02A (antibody, human IgG1, kappa, L234A L235A, V domains shown, hH11A heavy chain (hH01 with the 71st tyrosine changed to alanine, IgG1 LALA) and hL02 light chain; also called H11L02A antibody) VH: EVQLVQSGAEVKKPGASVKVSCKASGYTFTRNFMHWVRQAPGQGLEWMGWIAPGDGETEYAQKFQGRVTITADTSTSTAYMELSSLRSEDTAVYYCARGVYGGFAGGYFDFWGQGTLVTVSS VL: DIQMTQSPSSLSASVGDRVTITCKASQNIYKNLAWYQQKPGKAPKLLIYDANTLQTGVPSRFSGSGSGSDFTLTISSLQPEDFATYFCQQYYSGWAFGQGTKVEIKR
